Experimental data: the supplement of paper PMC10126150
± gives the standard deviation of the averaged measurements.

tested on: ATP; assay: switch fluorescence ratio, 500 uM ATP over buffer (Cy3 cluster intensity, sum of 5 cycles each) (fold (ratio)); higher = stronger signal-on switching upon ATP binding; sequences stand for … in TCGTCGGCAGCGTCAGATGTGTATAAGAGACAGTTTTTTTTTTTTTTTTTTTTTTTTT…TC; conditions: aptamer strand: ATP DNA aptamer (quencher-CACCTGGGGGAGTATTGCGGAGGAAGG + anchor), 100 nM annealed; ATP concentration: 500 uM
Method in brief: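 Between each of five buffer/ATP cycles, the flow-cell was stripped with NaOH and re-annealed. Each cycle imaged Cy3-labelled switching-strand clusters, annealed to 100 nM quencher-labelled ATP aptamer on a modified Illumina MiSeq flow-cell, first in selection buffer and then after 15 min with 500 uM ATP at 22 °C. The fluorescence ratio is summed target-cycle over summed buffer-cycle Cy3 intensity per cluster, averaged per switch-domain sequence, with clusters outside 100-1000 RFU excluded.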
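Further: ATP exposure 15 min at 22 °C before imaging.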

Sequence	switch fluorescence ratio
TATGCGGACA	1.04 ± 0.027
TATGCGGTCC	1.02 ± 0.019
TATGCTAAAA	0.965 ± 0.038
TATGCTGCTG	1.01 ± 0.036
TATGCTTATA	0.98 ± 0.014
TATGGAAGCA	0.994 ± 0.014
TATGGACATT	1.03 ± 0.011
TATGGAGCGT	1.04 ± 0.018
TATGGAGGCT	1.07 ± 0.015
TATGGATAGT	0.998 ± 0.017
TATGGATTGC	0.988 ± 0.032
TATGGCATCT	1 ± 0.051
TATGGCCCGG	1.02 ± 0.0014
TATGGCGGTC	0.92422 ± 0.00078
TATGGCGGTG	0.989 ± 0.021
TATGGGAGTT	1 ± 0.01
TATGGGCAGT	1.007 ± 0.0017
TATGGGCGTC	0.999 ± 0.011
TATGGGGCAG	0.99 ± 0.0093
TATGGGGGA	1.01 ± 0.069
TATGGGGGCT	1.04 ± 0.012
TATGGGTGCT	1.06 ± 0.046
TATGGGTTAA	1.01 ± 0.022
TATGGGTTGG	1.02 ± 0.04
TATGGTCGCT	1.03 ± 0.041

Sequence	switch fluorescence ratio
TATGGTGCG	0.984 ± 0.011
TATGGTGCTT	1.01 ± 0.032
TATGGTGTGC	1.02 ± 0.021
TATGGTTTAC	1 ± 0.017
TATGGTTTTT	0.996 ± 0.015
TATGTACACT	1.06 ± 0.053
TATGTAGGGG	1.09 ± 0.14
TATGTAGGTA	0.994 ± 0.047
TATGTATCGC	1.13 ± 0.15
TATGTCAGCT	1.01 ± 0.032
TATGTCTACA	0.9859 ± 0.0075
TATGTGAACT	0.9986 ± 0.0019
TATGTGAAGG	0.995 ± 0.015
TATGTGCAGG	0.995 ± 0.015
TATGTGCTGT	0.983 ± 0.011
TATGTGGACA	0.9964 ± 0.0047
TATGTGGAGG	0.97262 ± 0.00028
TATGTGGGCT	0.987 ± 0.021
TATGTGGGTC	1.02 ± 0.035
TATGTGTAAC	0.978 ± 0.02
TATGTGTGTT	0.9873 ± 0.0062
TATGTTAAC	1.02 ± 0.012
TATGTTAATG	0.999 ± 0.016
TATGTTAGTG	1.01 ± 0.042
TATGTTATGT	1.01 ± 0.052

Sequence	switch fluorescence ratio
TATGTTATTA	0.984 ± 0.039
TATGTTTGGG	0.986 ± 0.034
TATGTTTTGT	1.02 ± 0.041
TATGTTTTTT	0.997 ± 0.031
TATTAAAAAT	1.03 ± 0.047
TATTAAACTC	1.02 ± 0.017
TATTAACGTT	1.015 ± 0.0039
TATTAAGAGG	0.98 ± 0.018
TATTAAGCGA	1.05 ± 0.037
TATTAAGGGT	0.979 ± 0.029
TATTAAGGTT	0.978 ± 0.021
TATTAAGTGG	1.05 ± 0.071
TATTAATCGG	0.97 ± 0.056
TATTAATGAT	1.007 ± 0.01
TATTAATTC	0.972 ± 0.056
TATTAGAACT	1.017 ± 0.0064
TATTAGCTAT	0.998 ± 0.037
TATTAGGTA	1.01 ± 0.017
TATTAGTTTG	0.997 ± 0.024
TATTATATTT	1 ± 0.0046
TATTATGGGG	1.02 ± 0.034
TATTCAATTT	1 ± 0.021
TATTCAGGGT	1.01 ± 0.028
TATTCATGGT	1.025 ± 0.0057
TATTCCGTCC	1.1 ± 0.049

Sequence	switch fluorescence ratio
TATTCGATTC	1.04 ± 0.017
TATTCGGCTG	0.997 ± 0.029
TATTCTACCA	1.01 ± 0.011
TATTGAATGG	0.972 ± 0.03
TATTGAGGGA	1.017 ± 0.0031
TATTGATAAA	0.991 ± 0.058
TATTGATGGT	0.994 ± 0.019
TATTGCGATT	0.994 ± 0.018
TATTGGAGGT	0.981 ± 0.021
TATTGGGCTT	0.989 ± 0.018
TATTGGGGAA	0.978 ± 0.01
TATTGGGGGG	0.999 ± 0.025
TATTGGGTTC	0.965 ± 0.011
TATTGGTCAA	0.962 ± 0.017
TATTGGTGGG	0.9663 ± 0.008
TATTGTAGCT	1.01 ± 0.044
TATTGTTGGG	0.976 ± 0.03
TATTTAGGAA	0.9498 ± 0.0078
TATTTAGGGG	0.973 ± 0.022
TATTTAGTTT	1.01 ± 0.023
TATTTCCGGG	1.012 ± 0.0045
TATTTCTTTT	1.05 ± 0.11
TATTTGAATC	1.15 ± 0.24
TATTTGACG	1.02 ± 0.035
TATTTGAGCA	0.995 ± 0.026
